The DeepSol protein solubility set

assay: soluble on expression in E. coli; label from the status in PepcDB or PDB records

Sequence | soluble on expression in E. coli
VEHEQQVTESPSLASVPTADELFDFHIGDRVLIGNVQPGILRFKGETSFAKGFWAGVELDKPEGNNNGTYDGIAYFECKEKHGIFAPPQKISHIPENFDDYVDINEDED | soluble
MGSDKIHHHHHHASKIKQVGSTNLEPTTAYIRNYKATGSNAIYNKPGKLSGSKVVASASTAKAQSVLHGYKVAKLSNKSYYMKVVSFDGRYRGYIYVGKKNPVNNFKKVGGGLTYLSTTTSTSLTNNDKKDLSFAKPGTDTQIYKAPKGSQYKVGAAVKDTTDYKGHKLVASKAAMNDMDGQKWLYVSDVTEPTNASGWVLASQLTDYVAPKAPVSVGNDQTTVTKNWQREFYNPATGTKAYSFDNLNLPLLGTSGGSNVNWTTAVKKFNSDATVKGDKKDVVPADTLATAFKNSGLSTVYMKVTPTLLARIPGGLLDKIDSYSGLYMKFDLDMDNIPTTTHYGDQLKLAYKLDNTNLYYKPVISLGGLTNTNADGYAALPVQLNAMNTLWGLLYQ | not soluble
LSFQDELMRALNPDVLVVQKRPEGVLPLDELVRRIEGAEPGRKVAFVWVEMDSDKAGRIFYTPPPGQRRGESRWIDPYTGAFVGEPRGEGFFNLMMQLHRFLAMGEYGKQV | not soluble
MGHHHHHHSNKIERIIARLQRRIAEGQPEEQYEAAQETRLVAARYSKQGNWAAAVDILASVSQTLLRSGQGGSGGDLAVLLVDTFRQAGQRVDGASRGKLLGCLRLFQPGEPVRKRFVKEMIDWSKKFGDYPAGDPELHHVVGTLYVEEGEFEAAEKHLVLGTKESPEVLARMEYEWYKQDESHTAPLYCARAVLPYLLVANVRAANTAYRIFTSALVEDNKGLTVQNIGSQSAELRIFPSLPLLNFISMLLLSVQKGSPDLFRQLKSKYEANLNELNGIWDTALELIAEMYFGIQRPRQSNPLLDMMGSLFGGGGGAPSKAALRRIDTPAAEGLD | soluble
TMEPERLFNLIVKTTVDTLRAQIGYIILYSPREKNLQVTTLLGHTIPEGSTTTLPMKQSSVSTWVIENRRPLLITTMDEWPQFDRYSSLGYERRTLICAPLQIKDEIIGTITVVNKDDNSTYTIQELELLSTIAAQASIAIKNAQLYDEQQATYLHTIQALVSAIEAS | not soluble
MGSDKIHHHHHHAEVPVSDTIQQEAPAKVQITYDDPRDPFEGFNRAMWDFNYLYLDRYLYRPVAHGYNDYIPMPAKTGINNFVQNLEEPSSLVNNVLQGKWGWAANAGGRFTINSTVGLLGVIDVADMMGMSRKQDEFNEVLGYYGVPNGPYFMAPFAGPYVVRELASDWVDGLYFPLSELTMWQTIVKWGLKNLHSRASAIDQERLVDNALDPYAFVKDAYLQHMDYKVYDGNVPQKQDDDELLDQYMQELE | not soluble
MGSDKIHHHHHHMTEQVVATETVNLSQDSLQIAAYLAQPQAPGSYPGVVVLQEIFGVNGHIRDVTERIAKLGYVAIAPALFQRQAPGFETGYTPQDIEVGRGYAMQTKASELLNDIQAAIDYLKTLPQVKQNGFGCIGFCFGGHVAYLAATLPDIKATASFYGAGIATRTFGGGNPTVTRTPEIKGTLYGFFGTEDASIPPEQIDQIETELEKYNISHRVFRYDGADHGFFCDRRASYNPQAAADAWEQVQQLFKTVLTT | not soluble
SVERIYQKKTQLEHILLRPDTYIGSVELVTQQMWVYDEDVGINYREVTFVPGLYKIFDEILVNAADNKQRDPKMSCIRVTIDPENNLISIWNNGKGIPVVEHKVEKMYVPALIFGQLLTSSNYDDDEKKVTGGRNGYGAKLCNIFSTKFTVETASREYKKMFKQTWMDNMGRAGEMELKPFNGEDYTCITFQPDLSKFKMQSLDKDIVALMVRRAYDIAGSTKDVKVFLNGNKLPVKGFRSYVDMYLKDKLDETGNSLKVIHEQVNHRWEVCLTMSEKGFQQISFVNSIATSKGGRHVDYVADQIVTKLVDVVKKKNKGGVAVKAHQVKNHMWIFVNALIENPTFDSQTKENMTLQPKSFGSTCQLSEKFIKAAIGCGIVESILNWVKFKAQVQLNKKCS | soluble
MDKLIIGGIEIKNRLFVGSGKYPSNEIIKDVLEGSGSQVITLALRRVDLDNKEEDILQNIPKDVILLPNTSGATNAEEAIRIARIARAMGCGNWIKIEVISDSKYLLPDNEETIKATKVLADEGFIVLPYMCPDIYAGRRLIEAGAAAVMPLGAPIGSNRGLKTKELIQIMIDELDIPIIVDAGIGKPSQAMEAMEMGAAACLVNTAIASSEDPINMARAFKVAVEGGRLAYEAKMGRESKFGNASSPLTGFLDLEHHHHHH | not soluble
